Earlier results as cited in publication PMC11811815.

Biological target: Usp18 (Mus musculus) (UniProt Q9WTV6)
UniProt Q9WTV6, sequence (Q9WTV6 whole entry): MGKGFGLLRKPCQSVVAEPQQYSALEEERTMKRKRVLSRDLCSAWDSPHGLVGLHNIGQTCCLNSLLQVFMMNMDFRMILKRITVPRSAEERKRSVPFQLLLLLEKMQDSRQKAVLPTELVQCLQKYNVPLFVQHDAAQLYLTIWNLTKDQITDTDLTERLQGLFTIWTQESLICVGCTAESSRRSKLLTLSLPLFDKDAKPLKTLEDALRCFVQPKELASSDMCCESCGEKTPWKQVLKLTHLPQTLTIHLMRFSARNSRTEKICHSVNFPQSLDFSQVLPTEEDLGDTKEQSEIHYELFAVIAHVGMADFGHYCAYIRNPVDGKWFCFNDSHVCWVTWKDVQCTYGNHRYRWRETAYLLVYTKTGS

Kd: 1300 nM
Substance: Isg15 (from UniProt Q64339)
